The record followed here is PMC5795786 (Genes & Development, 2017).

Sequences and labels used below:
T1: Phosphatase-treated Dbf4 purified from yeast cells (S. cerevisiae (endogenous in yeast), UniProt P32325 1-704, treated with λ-phosphatase)
T1 sequence (looked up): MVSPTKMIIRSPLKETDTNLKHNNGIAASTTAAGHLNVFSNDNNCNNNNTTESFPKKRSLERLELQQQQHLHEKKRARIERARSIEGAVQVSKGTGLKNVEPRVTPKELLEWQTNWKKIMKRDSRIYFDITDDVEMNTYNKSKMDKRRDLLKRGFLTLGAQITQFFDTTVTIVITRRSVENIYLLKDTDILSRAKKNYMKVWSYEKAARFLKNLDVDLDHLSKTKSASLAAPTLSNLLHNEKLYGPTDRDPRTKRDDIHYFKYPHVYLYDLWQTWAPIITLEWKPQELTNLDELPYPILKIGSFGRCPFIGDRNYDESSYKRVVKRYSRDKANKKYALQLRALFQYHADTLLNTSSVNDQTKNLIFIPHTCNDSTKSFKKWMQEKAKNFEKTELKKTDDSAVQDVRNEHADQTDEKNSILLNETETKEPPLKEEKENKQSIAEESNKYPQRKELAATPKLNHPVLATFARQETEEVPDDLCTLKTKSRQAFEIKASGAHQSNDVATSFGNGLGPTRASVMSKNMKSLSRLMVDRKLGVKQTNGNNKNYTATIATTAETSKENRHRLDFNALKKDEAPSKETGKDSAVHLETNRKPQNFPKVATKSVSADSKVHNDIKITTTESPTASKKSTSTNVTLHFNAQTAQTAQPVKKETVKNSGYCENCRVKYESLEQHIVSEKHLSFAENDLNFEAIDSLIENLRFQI

T2: Purified recombinant Dbf4 (6His-Dbf4p, pET28a-Dbf4) (S. cerevisiae (budding yeast), UniProt P32325 1-704)
T2 sequence (looked up): T1 sequence (looked up)

T3: GST-Dbf4 (S. cerevisiae (budding yeast), UniProt P32325 1-704)
T3 sequence (looked up): T1 sequence (looked up)

B1: GST-Fkh1 (natural protein, S. cerevisiae (budding yeast), UniProt P40466 1-484, looked up)
chain: MSVTSREQKFSGKYSSYTAQDRQGLVNAVTCVLSSSSDPVAVSSDYSNSLSIAREVNAYAKIAGCDWTYYVQKLEVTIGRNTDSLNLNAVPGTVVKKNIDIDLGPAKIVSRKHAAIRFNLESGSWELQIFGRNGAKVNFRRIPTGPDSPPTVLQSGCIIDIGGVQMIFILPEQETIISDYCLNHLMPKLLSTYGTNGNNNPLLRNIIEGSTYLREQRLQEEARLQQLDHLHTPLSSSSDVNPIGDPHGDTIMMEEDEEDENYTRGGIRPNTYTSSSNNAVTNGNVPHIENPSDLSLDENRYIKPPQSYASMITQAILSTPEGSISLADIYKFISDNYAFYRFSQMAWQNSVRHNLSLNKAFEKVPKRAGQQGKGMNWKISDEVRRDFLNKWNAGKLSKIRRGASVTRQLQLHMSKFGEIPAPESSSIDPRGIKAQKVKKSLQATSSILGESAPQLQRTQLTGQISTTTSMDVTTNANVNNSSLS
B2: Purified recombinant Fkh1 (in vitro recruitment assay) (natural protein, S. cerevisiae (budding yeast), UniProt P40466 1-484, looked up)
chain: B1 chain
B3: GST-Dbf4 (1-390) (domain or fragment, S. cerevisiae (budding yeast), UniProt P32325 1-390, looked up)
chain: MVSPTKMIIRSPLKETDTNLKHNNGIAASTTAAGHLNVFSNDNNCNNNNTTESFPKKRSLERLELQQQQHLHEKKRARIERARSIEGAVQVSKGTGLKNVEPRVTPKELLEWQTNWKKIMKRDSRIYFDITDDVEMNTYNKSKMDKRRDLLKRGFLTLGAQITQFFDTTVTIVITRRSVENIYLLKDTDILSRAKKNYMKVWSYEKAARFLKNLDVDLDHLSKTKSASLAAPTLSNLLHNEKLYGPTDRDPRTKRDDIHYFKYPHVYLYDLWQTWAPIITLEWKPQELTNLDELPYPILKIGSFGRCPFIGDRNYDESSYKRVVKRYSRDKANKKYALQLRALFQYHADTLLNTSSVNDQTKNLIFIPHTCNDSTKSFKKWMQEKAKNFE
B4: His6-Sld3 (natural protein, S. cerevisiae (budding yeast), UniProt P53135 1-668, looked up)
chain: METWEVIASVKEATKGLDLSLDHPLIIKSEDVPSNILQLLQQKNRRQLKHICMKSRKEYFLLEEYGPGFWVKWPYNYFNGYSLPERRTEVVTTVERERAKRETLKTWDELKFKELLHLWSEEPKGSCKLEKDKDLKLDMNPPDMKGESKINDYYSDPKEYIESKYYDALFSIHTPLAYFVKSNLVRLKNTCRTKYGSDSYKIAYQAMLQKFLLSIVQFKDRHDNRLLLEPFSSPIADEKRKNCLTKFVIQDENKNSSTIADLCVVLKSREIKLQILLLLEIIGLNDLDWNFRDFEKKYKLKLKKRSLNLTKKGLVRRRSKKKTSEKDKGIERITTSLDYCEQLDLYLDRACILDILLSSETPNPDAIEASNGTIQEHKKNILDKSKEASLVGFINYVLIPYFNKKVPHAVEFIIQKLKGPSMRPKRALKKVNDSTNVSSPNTVETYNRLSTSQRASRSSIINSVPSSPALRRVDANLFSRKSIASPTPELLNSRTNSNLNEFLESETRSLKRPSQLGRTKSDLTMNHLQKRQFSVSDLSTTRVPNSSTITLKTPFSHSTINAYKTMNNSFRRVGKRKDINETIRLHERVDSEENVQVQATPAVKKRTVTPNKKAQLQSIIESPLNFKDDDTHEGRKNTSNITSTPTNKPPENSSKRRVRRRLFAPEST

Experiment [1] addresses T1, Phosphatase-treated Dbf4 purified from …. Nature of the experiment: pull-down.
The target of experiment [2] is T2, Purified recombinant Dbf4 (6His-Dbf4p, …). Nature of the experiment: in vitro origin recruitment assay on DNA beads.
Experiment [3] concerns the target B4. Put plainly: pull-down.
The target of experiment [4] is T3, GST-Dbf4. Nature of the experiment: pull-down.
The target of experiment [5] is B1. Nature of the experiment: pull-down.

Turning to B1, in experiment [1], the binding result was “binds”.

For the molecule B2, the binding result in experiment [2] is recorded as “binds”. Consider B3, for which, in experiment [3], the binding result is reported as “binds”. For the molecule B4, the binding result in experiment [4] is recorded as “binds”.

Take KNSGYCENCRVKYESLEQHIVSEKHLSFAENDLNFEAIDSLIENLRFQI (domain or fragment, S. cerevisiae (budding yeast), UniProt P32325 656-704, looked up) [6His-Dbf4 (656-704)]: the binding result in experiment [5] was “binds”.
